Measurements reported in US5733790, “CRF binding protein antibodies and assays using same” (The Salk Institute for Biological Studies, dated 1998).

Target: T1, rat/human corticotropin releasing factor (human and rat (same 41-residue sequence), C-terminal amide (NH2))
T1 peptide: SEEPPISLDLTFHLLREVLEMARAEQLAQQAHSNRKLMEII
Experiment: binding assay, method not described

Kd: 100 pM
B1: purified human CRF-BP (native 37 kD protein purified from human plasma) (other)
chain: YLELREAADYDPFLLFSANLKRELAGEQPYRRALRCLDMLSLQGQFTFTADRPQLHCAAFFISEPEEFITIHYDQVSIDCQGGDFLKVFDGWILKGEKFPSSQDHPLPSAERYIDFCESGLSRRSIRSSQNVAMIFFRVHEPGNGFTLTIKTDPNLFPCNVISQTPNGKFTLVVPHQHRNCSFSIIYPVVIKISDLTLGHVNGLQLKKSSAGCEGIGDFVELLGGTGLDPSKMTPLADLCYPFHGPAQMKVGCDNTVVRMVSSGKHVNRVTFEYRQLEPYELENPNGNSIGEFCLSGL
